In a protein production outcome set (Wang et al. 2014):

Test: label from the status in PepcDB records
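Also: failed if final PepcDB status was selected cloned or expressed and not failed if soluble or beyond.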

Sequence	protein production
MAPLNYKTITSRSILSKVLVRATQQWPTDKTLNKQLSELYGAYVNSFVSKFKDKHVITISLEVVNEKFLKDKTPLFEKGLDTLKEIIWNPLIKDRCFDHTYVAQEKSLLSKKLEAMEDNKAQYSFLQLMNYMFKQEPYRYIATGQLEQIPQVTSESLYDTYLSMVQNDDCAIYVVGNINKEEVTQLILDKFAIKPFYLENKESTEITPSFDQPQYIIEKDDVDQAKLNLGYRFPSYYGKSNYYAFIVLNMMFGGDPSSVLFNEVREKQSLAYSIHSQIDGKNGFLFVLSGVSAEKYEQAKDTVIKEFDKIKNGDFDSNKIELAKKIIISHRHEASDRPKSIIEILHNQLLLNRQQTDQDFINAVNQVTKKDVIKLANEAVLDTIYVLTKGDQH	failed
MAPLPLAVIVYEPGDVLEEILAAARDRLVGLPDVRIAGLVPRLGPRHSNGRASFWLDDIVRGDSIALSQDLGPGSTSCILNADGLATARMRLAEAIAVRPDLVLFGRFAKEEIAGRGIREEIGLALAQDVPALVAVERAMLPGWIAFAAEGWTMLPADADAVVAWFVALAAERQSADTLEHHHHHH	failed
MAPPSDSDPREPSPPLFQGRGLTKRFGSFVANQAIDLDIAGGEVHALLGENGAGKSTLVKLITGLLQPDDGRMIWRGTPISFAGPAEARACGIAAVSQHFALFDNLTVVENVALGLDRRISVGRLATELEQISQRYGLPLDPKREVWRLSVGERQRIEIVRALLQNPQLLILDEPTAVLTPAEADRLFDVLQRLRADGRALLYISHKLDEVKRLASVATILRAGRVVGSCDPRQESAASMARMMVGSDVTAPKQSSHSIGGPLLSVSGLTQRPDDPHGVTLRDIALEVRSGEIVGIAGVAGNGQDELFAALSGETPIAQSDVIHIAGEAAGSLSINQRRRLGAAFVPEQRLGHATVPTMSLSDNALLTGHATGALVKFGLVNRGAALALVDRVSEAFDVRKASRDPEAARLSGGNLQKFIVGREILRQPRLLIVDQPSWGLDAGAASAIRQALLDLAASGAAVLVISQDLDELIEIADRIAVMFHGRLSPPRPVSEIGRDQLGLLMGGSGWPAEVRDVAGALEHHHHHH	failed
MAPQPFDIDTPSLRVFLPAPELATGRAIVACPGGGYGGLAVNHEGYDWAPYFNKQGIALIVLKYRMPHGDRTLPISDAEAAMKMARDSADVWNLNPYDIGIMGSSAGGHLASTIATHTRPELRPNFQILFYPVITMDKSYTHIGSHDNLLGKDAFAELETEFSNEKQVTKETPRAFIAYSDDDKTVPPANGVNYYLGLHKNHVPAVLHIYASGGHGWGIRENFIYLEHHHHHH	failed
MAQENPLWMRHCAISPDGTTIAFTYKGDIFTVPVSGGKATQITTNPAFDTTPIWSPDSKQIAFASDRMGSMDVFIVSKDGGEPRRLTTFSGGETPVAFTDAGHILFTADIMPSTEDAGFPSNGQFQQIYQIPVSGGRPVMFSSMPMECISINKEGTILYQDKKGYEDYWRKHQKSPIARDIWMLRPGQTPRYEKQTTFIGEDREPVWAPDGKSFYYLSEENGTFNVYQRTPGSDTSKQVTHHKQHPVRFLEHHHHHH	failed
MAQKENSYPWPYGRQTAPSGLSTLPQRVLRKEPVTPSALVLMSRSNVQPTAAPGQKVMENSSGTPDILTRHFTIDDFEIGRPLGKGKFGNVYLAREKKSHFIVALKVLFKSQIEKEGVEHQLRREIEIQAHLHHPNILRLYNYFYDRRRIYLILEYAPRGELYKELQKSCTFDEQRTATIMEELADALMYCHGKKVIHRDIKPENLLLGLKGELKIADFGWSVHAPSLRRKTMCGTLDYLPPEMIEGRMHNEKVDLWCIGVLCYELLVGNPPFESASHNETYRRIVKVDLKFPASVPTGAQDLISKLLRHNPSERLPLAQVSAHPWVRANSRRVLPPSALQSVA	failed
MAQLPASMRRKRAAITSIHEKPPSRKQKLVNAGGWILLCIAFVVLAAGVYGLYKVITDAKIADLSIVGTRSVVEQNQLQQHIQPIIKDNYFTSDLEQIRDKALEISWVDRVVVSRAWPNSIRVRIMPRHAIARWGTGRLLSDSGDVYAEAELKNHPNLPMLHGPITQSKAMMRRYNEINQLFQPVNLRLTELYLTERMTWFMQFDSGLRVIVDQDQTMSKLQRLSHLAQTDLKPVWSKISAIDLRYRNGLSLQWKTGVPPKILNGQFVVTSDDTNVASGMTAKP	failed
MAQLSARAREDPAAVVDCLPELRQELATLDPRPREHAAEVVATIAHHYPEAARTAVDDIRPLLSDANPGVRAEAARALAEVATTFPDAVYPSVCDLLDRLTDDHYESRVNAAWALAELATEQPAGLRPAVEALCGVLTDDVAAVRAGGVWALAELAEEYPEPVRNAVPALRRLLDDDATLVRVHAARALAVLAETHPDAVEPARVDLEAFGNGEPEDLRKAVTFALAQLDEQTTEAKATSTAGATIDDPLPEEEWIFGGSDTETTATSSGLSAGGIPETVPDVPTPDLSYDDLKKQTTVENGDLSAVYRAAASTENGTVPVALKELRPSDGATLDSDLAHEAYTEARRWEGLDDHDHIVTLVDYGREPTVWFAMEYMDAGHLAEVADSLAFEHRLWSALVLTRAIRRAHRAGILHLNLKPENVLFRTVDDGWAVPKISDWGMEIQPHQDDHDVVPRYAAPEQLADDGRTDGVTDVYQLGRAFYQLFTGRPAFETTPECPADIVEAEPPAPSDIASVPAAVGDIIRTAMAPSQPDRYGAVVYLQEELETICADHGVPTT	failed
MAQPSTTYKFELNLTDLDRGVYESVKQTIARHPSETEERMTVRLLAYAFWYNEQLAFGRGLSDVDEPALWEKSLDDRVLHWIEVGQPDADRLTWCSRRTERTSLLAYGSLRVWEGKVIPAIKNLKNVNIAAVPQDVLEVLAKDMPRVIKWDVMISEGTVFVTDDRGQHEVQLQWLTGERG	not failed
MAQRGDPPPLRQYVAVRARLVGSGLVVGLLLGGLGMAGWTLYTGDARSSEATVFALGAMVFGFGLLGWSGSILAGRGIEAMQEHMDTRSNWTERDSRRAMARLCGGGGGIMVGTSVVAALL	failed
MAQRIFTLILLLCSTSVFAGLFDAPGRSQFVPADQAFAFDFQQNQHDLNLTWQIKDGYYLYRKQIRITPEHAKIADVQLPQGVWHEDEFYGKSEIYRDRLTLPVTINQASAGATLTVTYQGCADAGFCYPPETKTVPLSEVVANNAAPQPVSVPQQEQPTAQLPFSALWALLIGIGIAFTPCVLPMYPLISGIVLGGKQRLSTARALLLTFIYVQGMALTYTALGLVVAAAGLQFQAALQHPYVLIGLAIVFTLLAMSMFGLFTLQLPSSLQTRLTLMSNRQQGGSPGGVFVMGAIAGLICSPCTTAPLSAILLYIAQSGNMWLGGGTLYLYALGMGLPLMLITVFGNRLLPKSGPWMEQVKTAFGFVILALPVFLLERVIGDVWGLRLWSALGVAFFGWAFITSLQAKRGWMRIVQIILLAAALVSVRPLQDWAFGATHTAQTQTHLNFTQIKTVDELNQALVEAKGKPVMLDLYADWCVACKEFEKYTFSDPQVQKALADTVLLQANVTANDAQDVALLKHLNVLGLPTILFFDGQGQEHPQARVTGFMDAETFSAHLRDRQP	failed
MAQRQPHSPNQTLISITNDTESSSSVVSNDNTNKGWSGDNSPGIEALCAIYITYAVIISVGILGNAILIKVFFKTKSMQTVPNIFITSLAFGDLLLLLTCVPVDATHYLAEGWLFGRIGCKVLSFIRLTSVGVSVFTLTILSADRYKAVVKPLERQPSNAILKTCVKAGCVWIVSMIFALPEAIFSNVYTFRDPNKNMTFESCTSYPVSKKLLQEIHSLLCFLVFYIIPLSIISVYYSLIARTLYKSTLNIPTEEQSHARKQIESRKRIARTVLVLVALFALCWLPNHLLYLYHSFTSQTYVDPSAMHFIFTIFSRVLAFSNSCVNPFALYWLSKSFQKHFKAQLFCCKAERPEPPVADTSLTTLAVMGTVPGTGSIQMSEISVTSFTGCSVKQAEDRF	failed
MAQRVQLTATVSENQLGQRLDQALAEMFPDYSRSRIKEWILDQRVLVNGKVCDKPKEKVLGGEQVAINAEIEEEARFEPQDIPLDIVYEDEDIIIINKPRDLVVHPGAGNPDGTVLNALLHYYPPIADVPRAGIVHRLDKDTTGLMVVAKTVPAQTRLVESLQRREITREYEAVAIGHMTAGGTVDEPISRHPTKRTHMAVHPMGKPAVTHYRIMEHFRVHTRLRLRLETGRTHQIRVHMAHITHPLVGDPVYGGRPRPPKGASEAFISTLRKFDRQALHATMLRLYHPISGIEMEWHAPIPQDMVELIEVMRADFEEHKDEVDWL	not failed
MAQTCSILYIPYMLLLSSLFAAGIATITEGELLSSMIGVQGLIYCKRGSKLTPIQGAVARVTCERTDEYGYEAEDVTVLSQATDAKGYFLATLSSSEVKDYKKVIKIKECRAFLELSPSDTCSFPTEINRGISGAILQNYRLLENKLKMKLFTVGPFVFSSEETQDKSIPNGY	failed
MARDNENILEEWCLIESNPCIFYDMLKRMGATEISVEDVYSLSYFDDYINNKEIINMNHILGVDTYLGENNKTLDKENNVVDVIELYKNNICMEDKYNKLLKHHSYIYGIIFLFNIGKHYKNNKYIEHNVPDNLFFAKQVIPNACATQAILSIVLNKDIELNDEIKNIKTFSLNFDSSMKGLTLSNCTFLRNIHNSYKPPIYLDKEDVHHDKKKSEDSFHFVSYISFQDKVYLLDGLQSGPVLINADEQNKPNPNNNNNNKDNDNDNNNNNNNNNNNNNNNNNNNNNNNNNNIGMNGKDWIEISREHIKKEIDEICNSQTNNDVRFNIIAVMKDKEYIIQEYINIHRIVKQRVNIKLINLGENIELSDEINEDEFPLLNDIPSIENLPNNVDTLYNIVNKSTLEINYLQSLLHEQKEIKKLWNIELTFKFFNFYPFIMSSLNLMAKHKLLKDAYQKEKLKNATKS	failed
MARIDHVGLMVKDIDASIAFYQNVIGMTLKGRMTHTNGVMKLAFLGFENRDETELELIEGYNDNLPQEGKVHHFAVSTDDIEAEFDRVKGAGIKLMEDEITVLPNGFRYFFLFGPEGEMVEFFQRT	failed
MARILKKNKNELLDILEDYMTDCKYRDLRRTTIRAYEQSLRLLFKFLEDDYKVIYVEDVKEEHIRNYIDFTKERGKYSYVANENNINSNVPQNRGDFGKKVSLCTLDNYLGNIKMFFTWCKDNKLISKDPSFKIKRIKYSRKAKAEITIDEFNKLLKSLDLTLFSEYRDYIVIQLLMDTGMRVGECLELREEDIDIRNKTIFISGEIAKGRRDRYVFFSNTMQRMLQKWLNYKDRYVESNYIFVTNRGGKYQVHSFEKHMRNYLKKAKIDKQITPHTLRNNFAKRFLMSGGDIYTLSRLLGHSDIRTTQSAYLDLTTSDIRKNYLKFSPLENMKKKNW	failed
MARKIGSRYTAHQILGRGSAGTVWLGEGPDGPVAIKLLREDLASDQELVSRFVQERTALLGLDHPHVVSVRDLVVDGNDLALVMDLVRGTDLRTRLDRERRLAPEAAVAVVADVADGLAAAHAAGVVHRDVKPENVLLDMQGPLGPGGSHPALLTDFGVAKLIDTPRRTRATKIIGTPDYLAPEIVEGLPPRAAVDIYALATVLYELLAGFTPFGGGHPGAVLRRHVTETVVPLPGIPDELWQLLVQCLAKAPASRLRASELSARLRELLPMLAGMAPLDVDEPDAEQPEDAPDASAASPAAPVSTAEPVRRRGAVPLVPGAKPADSNRDTHTSMRVPAPDELAGGARGTARAPRASGAPRPGSARNRAATRRRRIAVGAGAVALVAAIGVGTWLATGGDEDGGGPQDTRNSAPAAP	failed
MARKRLIIEMGMGIDQHGQEPTIAASRAVRNAIAHNALPGVWEVAGLSHPNEMIIEVQVAVPYPEQVREEEVLAVLPFGRKTLTVESGGMIVQGRAIPELNDKNDEMLIAIAAVTVLIENE	not failed
MARPQDPPRGFFPFGNPFKNLSSKNSVLSSKLLPLLNNFETNLASSISKLVPKEKSDILTVSWMKQAMESLCETHNGIKTLITDLELPVSDWEDKWVDVYLDISVKLLDLCNAFSSELTRLNQGHLLLQFALHNLEANSPQNLSKAQSSLDSWKQHIVSKNPRIENCRAILSSLVQTLNLPKVKNSAKGKVLMRALYGVKVKTLYISGVFAAAFSGSSQNLMYLTVSNELPWAQSFMEVQNTMNAEIKNIFLSDGLTVLKELEAVASGVKKLYPAIQQGSIDPISLQPLKDSVTELSNGIDLVSKEVDCFFKILLSGRDTLLENLRSMGASTLQATSPKKAAGKNYRGF	failed
